Test results as given in PMC7619307, “The Golgi vesicle tether p115 can bind directly to the ER exit site organiser Sec16A” (Journal of cell science, 2026).

Biological target: T1, FLAG-tagged p115 head domain (1–655) (human, UniProt O60763 1-655)
T1 sequence (looked up): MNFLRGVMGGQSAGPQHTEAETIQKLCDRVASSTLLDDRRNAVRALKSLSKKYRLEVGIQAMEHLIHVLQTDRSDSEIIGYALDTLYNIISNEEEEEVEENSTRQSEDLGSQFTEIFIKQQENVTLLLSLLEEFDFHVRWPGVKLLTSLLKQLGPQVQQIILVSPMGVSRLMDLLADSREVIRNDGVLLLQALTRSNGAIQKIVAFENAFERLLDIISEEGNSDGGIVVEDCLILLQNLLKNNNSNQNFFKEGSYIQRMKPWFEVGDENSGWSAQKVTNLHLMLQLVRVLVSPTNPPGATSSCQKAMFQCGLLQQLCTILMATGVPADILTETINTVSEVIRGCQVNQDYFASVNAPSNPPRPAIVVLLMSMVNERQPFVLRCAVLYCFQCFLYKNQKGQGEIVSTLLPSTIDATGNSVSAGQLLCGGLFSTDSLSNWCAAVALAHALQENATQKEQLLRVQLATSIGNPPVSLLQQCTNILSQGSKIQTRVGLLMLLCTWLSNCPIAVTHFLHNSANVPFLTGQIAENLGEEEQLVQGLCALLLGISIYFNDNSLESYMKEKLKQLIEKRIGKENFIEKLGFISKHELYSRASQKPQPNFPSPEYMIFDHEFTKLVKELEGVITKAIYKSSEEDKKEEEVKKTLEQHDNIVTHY
Assay: pull-down; direct binding assay: FLAG-tagged protein eluted from anti-FLAG beads (1 M NaCl wash, 3×FLAG peptide) was incubated for 1 h at 4°C with GFP-tagged protein held on GFP-Trap beads after harsh washes (1% SDS; 1 M NaCl, 1% Triton X-100); washes with 300 mM NaCl; immunoblot
Details: both partners purified

binding result: binds
B1: Sec16A (650–776)–GFP (domain or fragment, human, UniProt O15027 650-776, looked up)
chain: ALPDASPGNLEQPPDNMETLCAPQVCPLPLNSTTEAVHMLPHAGAPPLDTVYPAPEKRPSARTQGPVKCESPATTLWAQSELPDFGGNVLLAPAAPALYVCAKPQPPVVQPPEEAMSGQQSRNPSSA
notes: source: HEK293T, transfected, in lysate (co-precipitation); not shown: GFP, C-terminal, kept
